From doi:10.1101/2023.03.10.532066

What was measured:
GLK2 [1] = molecular target: T1, GLK2 (Arabidopsis thaliana, UniProt Q9FFH0 1-386); assay: competition
T1 sequence: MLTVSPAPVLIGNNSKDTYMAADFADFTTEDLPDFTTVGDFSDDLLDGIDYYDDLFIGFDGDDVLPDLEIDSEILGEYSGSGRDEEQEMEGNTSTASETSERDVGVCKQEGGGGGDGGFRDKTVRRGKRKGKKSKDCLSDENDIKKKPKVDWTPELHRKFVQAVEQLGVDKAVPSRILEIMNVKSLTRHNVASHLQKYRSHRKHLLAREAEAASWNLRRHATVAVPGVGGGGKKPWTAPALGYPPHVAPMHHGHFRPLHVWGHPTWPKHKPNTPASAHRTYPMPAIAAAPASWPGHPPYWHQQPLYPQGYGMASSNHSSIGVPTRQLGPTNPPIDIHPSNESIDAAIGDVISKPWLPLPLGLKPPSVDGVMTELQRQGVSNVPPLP

GLK2 [2] = molecular target: T1, GLK2; assay: EMSA

Binder | binding result (GLK2 [1]) | binding result (GLK2 [2])
pDFR-p1m (mpDFR-D-EMSA) (dsDNA) DNA 1: ATACCAACACTAAAAAAAAAAAAAAAAAAACATAGAAGAAGAGAGCCAC DNA 2: GTGGCTCTCTTCTTCTATGTTTTTTTTTTTTTTTTTTTAGTGTTGGTAT | no binding | –
TTG1 probe (pTTG1-A-EMSA) (dsDNA) DNA 1: TCTTTTTTGTCTTCTTATGTGATATCAAATTTTATGATCT DNA 2: AGATCATAAAATTTGATATCACATAAGAAGACAAAAAAGA | – | binds
pTTG1m (mpTTG1-A-EMSA) (dsDNA) DNA 1: TCTTTTTTGTCTTCTTATGTAAAAAAAAATTTTATGATCT DNA 2: AGATCATAAAATTTTTTTTTACATAAGAAGACAAAAAAGA | – | no binding
